B1: library; numbered along this chain (parent)
chain: MAAAAAAAAEQQSSNGPVKKSMREKAVERRSVNKEHNSNFKAGYIPIDEDRLHKTGLRGRKGNLAICVIILLFILAVINLIITLVIWAVIRIGPNGCDSMEFHESGLLRFKQVSDMGVIHPLYKSTVGGRRNENLVITGNNQPIVFQQGTTKLSVENNKTSITSDIGMQFFDPRTQNILFSTDYETHEFHLPSGVKSLNVQKASTERITSNATSDLNIKVDGRAIVRGNEGVFIMGKTIEFHMGGNMELKAENSIILNGSVMVSTTRLPSSSSGDQLGSGDWVRYKLCMCADGTLFKVQVTSQNMGCQISDNPCGNTH

Variants of: B1
Experiment: SGCB cell-surface expression functional score (HA stain, bin4 vs bin1, normalised to synonymous) (log10 ratio); higher = more cell-surface SGCB (functional)
Description: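 Deep mutational scan of full-length human SGCB (YFP-SGCB-HA, NNN codon sublibraries A-F) delivered by lentivirus at low MOI into ADG-HEK293 cells stably expressing SGCA, SGCD and SGCG. YFP-positive cells were stained for surface HA on unpermeabilized cells and FACS-sorted into bins. The functional score is log10(frequency in high bin 4 / frequency in low bin 1), normalised per chunk so that synonymous variants have mean 0 and SD 0.5. Scores are the median over codons and over duplicate biological replicates; scores below -0.5 are called non-functional. Scale: negative means deleterious.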

SGCB cell-surface expression functional score (log10), by site and new letter:
A3: S -0.23, N 0.29, C -0.24, Q 0.11, G 0.02, H 0.3, I -0.02, R 0.15, D 0.14, V 0.12, F 0.22, Y 0.27, E 0.2, K 0.06, P 0.42, M 0.11, W 0.1, L -0.02, T 0.17
A5: H 0.12, E -0.03, K 0.07, G 0.2, S 0.1, N -0.07, D -0.01, R -0.2, I 0.29, W 0.56, P -0.19, F 0.61, Y 0.39, T 0.22, V 0.01, M 0.25, C 0.11, L 0.24, Q 0.33
A9: C 0.54, L 0.19, M 0.67, H 0.18, Q 0.46, R 0.3, P 0.17, S 0.12, D 0.38, G 0.37, E 0.28, I 0.35, K 0.19, N -0.39, F 0.04
A2: C 0.1, E -0.61, H 0.34, V 0.12, M 0.02, T 0.11, F -0.48, R 0.03, L 0.2, Q 0.19, D -0.07, N 0.38, W -0.4, S 0.14, K 0.23, I 0.13, P 0.24, Y 0.14, G 0.17
A6: Y 0.61, M 0.13, N 0.26, D 0.24, G 0.15, K -0.2, L -0.21, V 0.22, C -0.11, S 0.25, T 0.07, R 0, E -0.14, P 0.11, W -0.46, I 0.36, Q 0.69, F 0.37, H -0.23
A4: M 0.19, I 0.3, S 0.05, G 0.26, T 0.36, W -0.07, Y -0.14, R -0.11, V -0.06, N -0.48, F -0.21, Q -0.48, H 0.44, P 0.44, E -0.43, C 0.4, D 0.21, L 0.45, K -0.03
A8: G 0.3, W 1.01, I 0.15, N 0.12, K 0.32, L -0.18, M -0.04, S 0.05, F -0.02, P 0.35, D 0.14, R 0.09, H 0.25, C 0.27, T 0.33, Q -0.13, V 0.43, Y 0.51, E 0.48
A7: T 0.27, F 0.02, E -0.36, N 0.06, M 0.23, L 0.13, D 0.19, I 0.29, Q 0.41, Y 0.05, G 0.2, V 0.16, K 0.48, H -0.54, R 0.24, W 0.57, S -0.09, P 0.29, C 0.18
M1: A 0.12, S 0.07, T -1.08, L -1.26, F -0.28, D 0.69, P 0.21, Y -0.02, R -0.06, C 0.25, Q 0.35, G 0.1, I -1.06, W -0.07, N 0.37, H 0.01, E -0.03, V 0.28, K 0.14
